Measurements as given in patent publication US7470669B2, “Isolated polypeptide comprising a leptin fragment” (Serono Genetics Institute, S.A., priority 1999, dated 2008).

Columns and labels:
LSR = assay: BUD assay of 125I-LDL in PLC cells transfected with truncated human LSR; type: cell-based; settings: corrected for total protein, depending on oleate concentration
From the text: Method of Cloning & Testing. • 1. Digest Human LSR plasmids with enzymes of interest under appropriate conditions. Separate the appropriate insert fragment from the vector using agarose gel electrophoresis and Qiaquick gel extraction columns. Note: For constructs 1, 2, 3, 4a, 5, and 6 pTracerCMV2 LSR α was used as the source for the insert. For construct 4b, pTracerCMV2 LSR α′ was used as the source for the insert. For 4c, pTracerCMV2 LSR β was used as the source for the insert. • 2. Digest the pcDNA/HisMax vector in the appropriate reading frame with the enzymes of interest. Purify using agarose gel electrophoresis and Qiaquick gel extraction columns. • 3. If necessary, treat insert fragments with Klenow DNA polymerase or T4 DNA polymerase I to blunt 3′ overhangs. […] Verify correct clones by having them sequenced to ensure that they are in the proper reading frame and that there are no amino acid changes. • 8. […]
BUD Assay Methods: • 1. […] Remove suramin into gamma counter tubes, and count for radioactivity. […] Recover the cell lysates into gamma counter tubes and count for radioactivity. […] After cell lysates have been counted, determine the protein concentration per mL so that data can be reported as ng ^125I-LDL bound/mg of total protein. Protein is determined using the BCA assay from Pierce according to the manufacturer's instructions. […]

ob/ob mice = assay: Postprandial plasma TG response after high-fat test meal in ob/ob mice; type: in vivo, mouse; settings: i.v. 0.5 μg recombinant mouse leptin and/or 2.5 mg lactoferrin, mean ± SD
Experimental: FIGS. 11A and 11B show the effect of mouse leptin (FIG. 11A) or leptin peptide (FIG. 11B) on postprandial plasma TG response in ob/ob mice. […] Postprandial triglyceridemia was measured as described previously. Each point represents the mean±SEM (A: saline, n=8, leptin, n=7; leptin peptide: saline, n=8, leptin, n=8). […] Primary cultures of rat hepatocytes were incubated 30 min at 37° C. with increasing concentrations of mouse leptin peptide. Oleate (0.5 mM) and ^125I-LDL (20 μg/mL) were added and the cells were incubated 2 h at 37° C. After washing, the amount of 125I-LDL bound to the cell surface was measured as described in the Examples section herein.
Mice that were fasted for 2-3 hours were gavage-fed 300 μL of a test meal consisting of 60% fat (37% saturated, 27% mono-, and 36% polyunsaturated fatty acids), 20% protein and 20% carbohydrate, and providing 56 kcal of energy/kg (1.5 g butter, 1.5 g sunflower oil, 2.5 g nonfat dry milk, 2.5 g sucrose and 3 ml water). […] TG concentrations were determined using a commercially available enzymatic kit with controls included in each assay (Precinorm L, Roche-Boehringer Mannheim; Lyotrol N, BioMérieux).
The inhibition of the intestinal absorption of dietary lipids by leptin was also investigated. […] Blood samples were taken at 2 and 3 h after the test meal, and plasma TG concentrations were measured (see Table, below). […]

[1] = test system: bovine brain capillary endothelial cells; assay: Leptin transcytosis in blood-brain barrier in vitro model; type: cell-based; settings: 10 ng/mL 125I-leptin + 2 mg/mL lactoferrin
Experimental: Cells were incubated with ^125I-leptin alone (10,000 dpm/ng) (closed squares), with 1 μg/mL unlabelled leptin (triangles), 50 μg/mL MP (circles), 50 μg/mL HP (open squares), or 2 mg/mL lactoferrin (asterisks).
Human leptin transport through the blood-brain barrier (BBB) is studied using an in vitro model (Dehouck, et al J Neurochem 54:1798-801, 1990 hereby incorporated herein by reference in its entirety including any figures, tables, or drawings). This model closely mimics the in vivo situation with regard to the selective passage of nutrients and drugs through the cerebro-vascular endothelium. […] Briefly, this model consists of a co-culture of bovine brain capillary endothelial cells (ECs) and rat astrocytes (FIG. 31). The astrocytes are seeded on the plastic of a six-well dish and grown for 3 weeks. […]
Leptin transcytosis: Experiments were performed on brain capillary endothelial cells in coculture with astrocytes for 16 days. […] At the end of the experiment, the amount of radioactivity of each well was counted. […]
The transport of molecules through the endothelial monolayer was determined for each time point as % passage: % passage of radiolabelled molecule through the endothelium: dpm found in the lower compartment at a time point divided by the initial dpm found in the upper compartment: % transport at 30 min=(lower dpm t30/upper dpm)*100.

Molecule | increase in LDL metabolism (LSR) [fold] | Plasma TG 2-3 hours after test meal (ob/ob mice) | amount of leptin transported [1]
C-terminal portion from AA 353 to 541: truncated human LSR construct, AA 353 to 541 (protein, UniProt Q86X29 353-541, looked up, fragment) PGGYPGDVDRSSSAGGQGSYVPLLRDTDSSVASEVRSGYRIQASQQDDSMRVLYYMEKELANFDPSRPGPPSGRVERAMSEVTSLHEDDWRSRPSRGPALTPIRDEEWGGHSPRSPRGWDQEPAREQAGGGWRARRPRARSVDALDDLTPPSTAESGSRSPTSNGGRSRAYMPPRSRSRDDLYDQDDSR | ~2 |  | 
Lactoferrin: a milk protein that inhibits the removal of dietary lipid by the liver; inhibitor of LSR (protein, UniProt P02788 20-710, looked up) Lactotransferrin: GRRRSVQWCAVSQPEATKCFQWQRNMRKVRGPPVSCIKRDSPIQCIQAIAENRADAVTLDGGFIYEAGLAPYKLRPVAAEVYGTERQPRTHYYAVAVVKKGGSFQLNELQGLKSCHTGLRRTAGWNVPIGTLRPFLNWTGPPEPIEAAVARFFSASCVPGADKGQFPNLCRLCAGTGENKCAFSSQEPYFSYSGAFKCLRDGAGDVAFIRESTVFEDLSDEAERDEYELLCPDNTRKPVDKFKDCHLARVPSHAVVARSVNGKEDAIWNLLRQAQEKFGKDKSPKFQLFGSPSGQKDLLFKDSAIGFSRVPPRIDSGLYLGSGYFTAIQNLRKSEEEVAARRARVVWCAVGEQELRKCNQWSGLSEGSVTCSSASTTEDCIALVLKGEADAMSLDGGYVYTAGKCGLVPVLAENYKSQQSSDPDPNCVDRPVEGYLAVAVVRRSDTSLTWNSVKGKKSCHTAVDRTAGWNIPMGLLFNQTGSCKFDEYFSQSCAPGSDPRSNLCALCIGDEQGENKCVPNSNERYYGYTGAFRCLAENAGDVAFVKDVTVLQNTDGNNNEAWAKDLKLADFALLCLDGKRKPVTEARSCHLAMAPNHAVVSRMDKVERLKQVLLHQQAKFGRNGSDCPDKFCLFQSETKNLLFNDNTECLARLHGKTTYEKYLGPQYVAGITNLKKCSTSPLLEACEFLRK |  | 2.02 ± 0.26^¶ mg/mL | significantly inhibited
